Values of other authors in article doi:10.1101/2022.06.02.22275920v1, “Glucagon/GLP-1 receptor co-agonist NNC9204-1177 reduced body weight in adults with overweight or obesity but was associated with safety issues” (medRxiv, 2022).

Conditions: type 2 diabetes; 1.0 mg dose level
From the text: Indeed, GLP-1 RAs are known to have chronotropic effects; for example, increases in pulse rate have been reported in participants with type 2 diabetes in a MAD trial with semaglutide and in trials with dulaglutide and a dual glucose-dependent insulinotropic polypeptide (GIP) and GLP-1 RA [33]. However, the increase in heart rate for NN1177 far exceeds that observed for semaglutide; for example in the SUSTAIN 6 cardiovascular outcomes trial for semaglutide in type 2 diabetes, a placebo ...

semaglutide
placebo-corrected heart rate increase: 3.2 bpm
